Source: PMC5499601 (Nucleic Acids Research, 2017)
Changes are numbered by the printed parent chain.

Assays:
Assay in all cases: EMSA
[1] = target: T1, BsSpo0J Q61R (UniProt P26497 1-282, Q61R)
T1 sequence: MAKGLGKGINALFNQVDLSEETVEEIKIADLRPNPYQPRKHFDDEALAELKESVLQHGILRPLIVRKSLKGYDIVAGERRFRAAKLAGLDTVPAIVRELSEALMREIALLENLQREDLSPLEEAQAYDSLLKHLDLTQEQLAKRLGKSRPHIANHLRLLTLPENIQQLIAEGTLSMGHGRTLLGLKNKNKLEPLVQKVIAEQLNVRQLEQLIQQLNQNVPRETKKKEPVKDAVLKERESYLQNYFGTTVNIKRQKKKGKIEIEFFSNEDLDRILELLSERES

[2] = target: T2, BsSpo0J Q61A (UniProt P26497 1-282, Q61A)
T2 sequence: T1 sequence with R61A

[3] = target: T3, BsSpo0J V75A (UniProt P26497 1-282, V75A)
T3 sequence: T1 sequence with R61Q, V75A

[4] = target: T4, BsSpo0J L60E (UniProt P26497 1-282, L60E)
T4 sequence: T1 sequence with L60E, R61Q

[5] = target: T5, BsSpo0J H57E (UniProt P26497 1-282, H57E)
T5 sequence: T1 sequence with H57E, R61Q

[6] = target: T6, BsSpo0J R105A (UniProt P26497 1-282, R105A)
T6 sequence: T1 sequence with R61Q, R105A

[7] = target: T7, BsSpo0J N112S (UniProt P26497 1-282, N112S)
T7 sequence: T1 sequence with R61Q, N112S

[8] = target: T8, BsSpo0J Q140A (UniProt P26497 1-282, Q140A)
T8 sequence: T1 sequence with R61Q, Q140A

[9] = target: T9, BsSpo0J WT (UniProt P26497 1-282)
T9 sequence: T1 sequence with R61Q

Measured: binding result

B1: 24-bp parS (dsDNA)
DNA 1: AGAATGTTCCACGTGAAACAAAGA
DNA 2: TCTTTGTTTCACGTGGAACATTCT
binds: all assays above
